From patent publication US20250115663A1 (CELLDEX THERAPEUTICS, published 2025)
Where a chain is given by its changes, count along the chain named. Blank lines part the entries; values can stand above or below the binder they belong to.

Columns and labels:
[1] = target: T1, soluble human CD40-MsIgG2a (human, UniProt P25942); experiment: BLI (Octet QKe), antibody captured on anti-human Fc (AHC) biosensors, analyte soluble human CD40-MsIgG2a 3.13 to 0.098 nM, 25 C, 1:1 fit; column head kdis(1/s)
T1 construct: soluble, fused to mouse IgG2a; also called recombinant human CD40-msG2a chimeric protein; CD40-MsIgG2a (Celldex, 60 kD by SDS-PAGE)
T1 sequence (P25942 21-193 limits assumed): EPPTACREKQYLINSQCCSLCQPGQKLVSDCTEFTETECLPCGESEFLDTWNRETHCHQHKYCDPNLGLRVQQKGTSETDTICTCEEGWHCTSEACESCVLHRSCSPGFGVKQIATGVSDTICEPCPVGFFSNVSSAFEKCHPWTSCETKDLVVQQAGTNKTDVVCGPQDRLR
Method: (§1) Purified antibodies from Example 1 were captured on Anti-Human Fc Capture (AHC) biosensors (Fortebio Product No. 18-5060). Each antibody was prepared in dilution buffer (10mMPO4+150 mM NaCl+1 mg/mL BSA+0.5% Tween 20, pH 7.2) to 0.5 μg/mL and loaded on freshly hydrated AHC biosensors for 35-50 sec at 25° C. and 1000 rpm plate shake speed to achieve a target response of 0.2 nm. Low levels of ligand were captured to limit any effects of mass transport of analyte on kinetic parameters. For one assay, eight biosensors were loaded with the same antibody.
(§2) Binding was determined by exposing six of the antibody loaded biosensors to analyte: soluble human CD40-MsIgG2a (Celldex, 60 kD by SDS-PAGE). Affinity measurements were determined using 2-fold serial dilutions of analyte ranging from 3.13 to 0.098 nM in dilution buffer at 25° C. and 1000 rpm plate shake speed. Association of the antibody loaded biosensors in analyte wells was carried out for 1200 seconds, the biosensors were then moved to dilution buffer wells for 2.5 hrs (9000 sec) for dissociation measurements.
(§3) Fortebio's Data Analysis Software version 8.2.0.7 (Pall ForteBio, Menlo Park, CA) was used in each case to derive kinetic parameters from the concentration series of analyte in dilution buffer binding to captured antibody. The association and dissociation curves were fitted to a 1:1 binding model using the data analysis software according to the manufacturer's guidelines.

[2] = target: T1, soluble human CD40-MsIgG2a; experiment: BLI (Octet QKe), antibody captured on anti-human Fc (AHC) biosensors, analyte soluble human CD40-MsIgG2a 3.13 to 0.098 nM, 25 C, 1:1 fit
Method: as §1, §2, §3

[3] = target: T2, recombinant human CD40-Fc (human, UniProt P25942 21-193); experiment: ELISA on coated recombinant human CD40-Fc, detection anti-human IgG F(ab')2-HRP, OD 450-650
T2 construct: also called soluble recombinant human CD40/Fc chimera from R&D Systems; not shown: The antibody Fc domain of the R&D Systems chimera and any linker to it
T2 sequence (P25942 21-193 limits assumed, form in doubt): as the sequence (P25942 21-193 limits assumed) above
Method: Microtiter plates were coated with recombinant human CD40-Fc in PBS, and then blocked with 5% bovine serum albumin in PBS. […] The plates were washed with PBS/Tween and then incubated with a goat-anti-human IgG F(ab′)2-specific polyclonal reagent conjugated to horseradish peroxidase at 37° C. After washing, the plates were developed with HRP substrate, and analyzed at OD 450-650 using a microtiter plate reader.

[4] = target: T2, recombinant human CD40-Fc; experiment: ELISA on coated recombinant human CD40-Fc, detection anti-human IgG F(ab')2-HRP, OD 450-650 (the y axis is labelled 'Median Fluorescence')
Method: Microtiter plates were coated with recombinant human CD40-Fc in PBS, and then blocked with 5% bovine serum albumin in PBS. Protein A purified human mAbs from Example 1 and an isotype control were added at various concentrations and incubated at 37° C. The plates were washed with PBS/Tween and then incubated with a goat-anti-human IgG F(ab′)2-specific polyclonal reagent conjugated to horseradish peroxidase at 37° C. After washing, the plates were developed with HRP substrate, and analyzed at OD 450-650 using a microtiter plate reader.

B2: anti-CD40 human monoclonal antibody 3B6 (antibody, human IgG2, V domains shown)
VH: EVQLLESGGGLVQPGGSLRLSCAASGFTFSSYAMSWVRQAPGKGLEWVSGITGTGGSTYYADSVKGRFTISRDNSKNTLYVQMNSLRAEDTAVYYCAKRAGGSFYYYYGMDVWGQGTTVTVSS
VL: DIVMTQSPLSLPVTPGEPASISCRSSQSLLHSTGYNYLDWYLQKPGQSPQLLIYLGSNRASGVPDRFNGSGSGTDFTLKISRVEAEDFGVYYCMQALQTPWTFGHGTKVEIK
notes: Human IgG2
koff [1]: 6.14e-06 s⁻¹
Kd [2]: 0.0079 nM
kon [2]: 782000 M⁻¹ s⁻¹

B4: F(ab')2 fragment of antibody 3G5 (other)
VH: QVQLVESGGGVVQPGKSLRLSCAASGFTFSSNGIHWVRQAPGKGLEWVAVIWSDGSNKFYADSVKGRFTISRDNSKNTLYLQMNSLRAEDTAVYYCARASGSGSYYNFFDYWGQGTLVTVSS
VL: EIVMTQSPATLSVSPGERATLSCRASQSVRSNLAWYQQKPGQAPRLLIYGASTRATGIPARFSGSGSGTEFTLTINSLQSEDFAVYYCQQHNKWITFGQGTRLEIK
notes: F(ab')2 version of the IgG2 antibody, lacking the Fc domain; also called 3G5 F(ab')2
EC50 (read off the curve) [3]: ~0.3 nM

B6: F(ab')2 fragment of antibody 3C3 (other)
VH: QVQLVESGGGVVQPGRSLRLSCAGSGFIFSRYGMYWVRQAPGKGLEWVAVIWYDGSYKYYADSVKGRFTISRDNSKNTLYLQMNSLRAEDTAVYYCARESPWYYFDYWGQGTLVTVSS
VL: DIQMTQSPSSLSASVGDRVTITCRASQGISNYLAWYQQKPGKVPKLLIYAASTLQSGVPSRFSGSGSGTDFTLTISSLQPEDVATYYCQKYKSAPFTFGPGTKVDIK
notes: F(ab')2 version of the IgG2 antibody, lacking the Fc domain; also called 3C3 F(ab')2
EC50 (read off the curve) [3]: ~0.4 nM

Continued, values first:

koff [1]: 8.76e-06 s⁻¹
Kd [2]: 0.0105 nM
kon [2]: 832000 M⁻¹ s⁻¹
B1: anti-CD40 human monoclonal antibody 1B4 (antibody, human IgG2, V domains shown)
VH: EVQLLESGGGLVQPGGSLRLSCAASGFTFSSYAMTWVRQVPGKGLEWVSGITGSGANTFYTDSVKGRFTISRDNSNNSLYLQMNSLRADDTAVYYCAKRNGGSYYYYYGMDVWGQGTTVTVSS
VL: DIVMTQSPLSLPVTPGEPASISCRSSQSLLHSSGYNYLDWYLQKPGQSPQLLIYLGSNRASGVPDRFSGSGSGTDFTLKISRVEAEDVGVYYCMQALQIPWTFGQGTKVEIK
notes: Human IgG2

koff [1]: 2.49e-06 s⁻¹
Kd [2]: 0.0028 nM
kon [2]: 905000 M⁻¹ s⁻¹
B3: anti-CD40 human monoclonal antibody 6H6 (antibody, human IgG2, V domains shown)
VH: B4 VH with K16R, L20F, F29L, N32Y, I34M, S53D, F59Y, S100G, S104R, F108Y
VL: B4 VL with E70D, N76S, K93N, I95L, Q99G, R102K, L103V
notes: Human IgG2

EC50 (read off the curve) [4]: ~0.09 µg/mL
B5: anti-CD40 human monoclonal antibody 1B5-NK (antibody, human IgG2, V domains shown)
VH: QVQLVESGGGVVQPGRSLRLSCAASGFTFSSFGMHWVRQAPGKGLEWVTLIWFDGSSKYYADSVKGRFTISRDNSKNTLYLQMNSLRAEDTAVYYCVRGFAAVAGWYFDFWGRGTLVTVSS
VL: B6 VL with I29V, S30R, N31K, K92F, F96Y, P100Q, V104L, D105E
notes: Human IgG2
